The results in this text go back to paper PMC9325241.

Assay [1] addresses recombinant PD-L1 (human PD-L1 protein) (human) (UniProt Q9NZQ7). Nature of the assay: SPR. As to conditions: bispecific antibody.
Assay [2] has as its target recombinant EGFR (human EGFR protein) (human) (UniProt P00533). The experiment in a line: SPR. The conditions noted are these: bispecific antibody.

UniProt Q9NZQ7, sequence (Q9NZQ7 19-238): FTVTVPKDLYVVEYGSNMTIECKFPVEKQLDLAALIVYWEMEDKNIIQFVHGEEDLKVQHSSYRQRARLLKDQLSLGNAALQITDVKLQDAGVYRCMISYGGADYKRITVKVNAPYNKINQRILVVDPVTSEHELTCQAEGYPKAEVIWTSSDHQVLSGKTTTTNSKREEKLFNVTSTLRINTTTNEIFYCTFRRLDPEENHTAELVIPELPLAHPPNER

The Kd is the equilibrium constant for the complex coming apart. The koff is the first-order rate constant of dissociation. Regarding “anti-EGFR/PD-L1 BsAb, dual variable domain immunoglobulin (DVD-Ig) symmetric tetravalent format (from UniProt P01857)”, the results for the Kd in assay [1] and in assay [2] were 0.000374 nM and 0.913 nM, respectively. In addition, the figures for the koff in assay [1] and in assay [2] were 7.56e-07 s⁻¹ and 0.0007 s⁻¹, respectively.

Regarding “anti-EGFR/PD-L1 BsAb, knob-in-hole (KIH) asymmetric bivalent format (from UniProt P01857)”, in assay [1], the equilibrium dissociation constant (Kd) came to 0.0106 nM and the koff is 2.13e-05 s⁻¹. In addition, in assay [2], the Kd worked out at 56.3 nM and the koff came out at 0.0295 s⁻¹.
